Reference: PMC9239117

What was measured:
[1] = target: Human metapneumovirus (HMPV) phosphoprotein (P), strain CAN97-83 (Human metapneumovirus (strain CAN97-83)) (UniProt Q8B9Q8)
[2] = target: Human metapneumovirus (HMPV) phosphoprotein (P), strain CAN97-83 (Human metapneumovirus (strain CAN97-83)) (UniProt Q8B9Q8); remark: listed apart in the source

Row | Molecule | turbidity assay, absorbance at 395 nm against time (5-min intervals), N^0-P (40 uM) with anion exchange-purified P (40 uM), against N^0-P alone (peak above 0.6) (absorbance at 395 nm) [1] | turbidity assay, absorbance at 395 nm against time (5-min intervals), N-RNA (40 uM) with heparin-purified P (40 uM), against N-RNA alone (absorbance at 395 nm) [2]
1 | HMPV N^0-P construct: full-length N (1 to 394) fused to a P peptide (1 to 40) (from UniProt Q6WBA1 1-394; Q8B9Q8 1-40) | 0.3 | 
2 | HMPV wild-type nucleoprotein N, RNA-bound rings (N-RNA), strain CAN97-83 (natural protein) MSLQGIHLSDLSYKHAILKESQYTIKRDVGTTTAVTPSSLQQEITLLCGEILYAKHADYKYAAEIGIQYISTALGSERVQQILRNSGSEVQVVLTRTYSLGKVKNNKGEDLQMLDIHGVEKSWVEEIDKEARKTMATLLKESSGNIPQNQRPSAPDTPIILLCVGALIFTKLASTIEVGLETTVRRANRVLSDALKRYPRMDIPKIARSFYDLFEQKVYYRSLFIEYGKALGSSSTGSKAESLFVNIFMQAYGAGQTMLRWGVIARSSNNIMLGHVSVQAELKQVTEVYDLVREMGPESGLLHLRQSPKAGLLSLANCPNFASVVLGNASGLGIIGMYRGRVPNTELFSAAESYAKSLKESNKINFSSLGLTDEEKEAAEHFLNVSDDSQNDYE |  | 0.2
